Laboratory results reported in patent US20030109691A1.
pKd: −log10 of the molar value.

Legend:
fibrinogen = fibrinogen (UniProt P02671); assay: SPR (BIAcore), fibrinogen on CM5 chip, A domain flowed; linear transformation, mean±SD, n=2
complement iC3b [1] = molecular target: complement iC3b (UniProt P01024); assay: SPR (BIAcore), iC3b on CM5 chip, A domain flowed; linear transformation, mean±SD, n=2
CD54 (ICAM-1) = CD54 (ICAM-1) (UniProt P05362); assay: SPR (BIAcore), CD54 on CM5 chip, A domain flowed; linear transformation, mean±SD, n=2
complement iC3b [2] = molecular target: complement iC3b (UniProt P01024); assay: SPR (BIAcore), iC3b on CM5 chip, A domain flowed

Sequence of CD54 (ICAM-1) (P05362 28-480 limits assumed): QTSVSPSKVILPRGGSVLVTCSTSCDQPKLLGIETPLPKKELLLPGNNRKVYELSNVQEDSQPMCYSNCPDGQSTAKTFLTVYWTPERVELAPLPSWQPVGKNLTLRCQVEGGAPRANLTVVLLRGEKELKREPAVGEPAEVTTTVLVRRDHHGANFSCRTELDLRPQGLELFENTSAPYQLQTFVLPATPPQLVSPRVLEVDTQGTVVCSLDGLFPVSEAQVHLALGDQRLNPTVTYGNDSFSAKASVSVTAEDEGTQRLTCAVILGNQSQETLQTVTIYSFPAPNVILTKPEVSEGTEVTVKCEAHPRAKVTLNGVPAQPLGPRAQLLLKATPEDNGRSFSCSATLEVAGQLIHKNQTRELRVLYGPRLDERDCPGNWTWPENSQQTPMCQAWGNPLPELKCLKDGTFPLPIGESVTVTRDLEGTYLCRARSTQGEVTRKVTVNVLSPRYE
Sequence of fibrinogen (P02671 20-629 limits assumed, chain 1 of 3): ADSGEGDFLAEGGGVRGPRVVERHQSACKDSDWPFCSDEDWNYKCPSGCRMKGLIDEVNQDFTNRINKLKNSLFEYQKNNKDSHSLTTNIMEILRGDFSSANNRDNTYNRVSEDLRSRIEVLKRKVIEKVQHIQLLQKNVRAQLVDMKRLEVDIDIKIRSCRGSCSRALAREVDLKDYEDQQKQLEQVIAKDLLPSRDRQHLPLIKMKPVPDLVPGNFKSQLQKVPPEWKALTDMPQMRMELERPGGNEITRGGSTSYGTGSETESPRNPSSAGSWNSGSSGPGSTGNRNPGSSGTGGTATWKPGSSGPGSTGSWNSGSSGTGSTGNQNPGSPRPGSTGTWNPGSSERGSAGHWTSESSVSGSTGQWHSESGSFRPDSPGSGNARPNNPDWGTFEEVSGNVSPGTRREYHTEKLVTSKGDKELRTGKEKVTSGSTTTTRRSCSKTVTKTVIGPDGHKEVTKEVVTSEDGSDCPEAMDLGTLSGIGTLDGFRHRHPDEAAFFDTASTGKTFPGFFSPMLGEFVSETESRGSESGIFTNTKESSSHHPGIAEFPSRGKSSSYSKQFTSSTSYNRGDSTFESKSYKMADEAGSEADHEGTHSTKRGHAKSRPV
Sequence of fibrinogen (P02675 31-491 limits assumed, chain 2 of 3, further chain): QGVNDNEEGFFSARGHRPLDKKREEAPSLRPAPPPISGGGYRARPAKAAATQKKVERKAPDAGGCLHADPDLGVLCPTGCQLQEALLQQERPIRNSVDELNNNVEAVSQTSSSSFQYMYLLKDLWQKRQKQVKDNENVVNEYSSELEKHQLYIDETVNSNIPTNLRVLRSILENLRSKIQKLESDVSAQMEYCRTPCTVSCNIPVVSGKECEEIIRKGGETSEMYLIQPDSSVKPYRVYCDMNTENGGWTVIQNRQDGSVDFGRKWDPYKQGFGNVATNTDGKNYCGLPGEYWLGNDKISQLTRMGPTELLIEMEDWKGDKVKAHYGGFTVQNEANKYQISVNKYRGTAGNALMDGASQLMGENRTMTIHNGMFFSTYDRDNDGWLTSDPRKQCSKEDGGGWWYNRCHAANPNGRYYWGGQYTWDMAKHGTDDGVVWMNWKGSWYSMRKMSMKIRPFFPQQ
Sequence of fibrinogen (P02679 other isoform, or with tags, fused parts or gaps limits assumed, chain 3 of 3, further chain): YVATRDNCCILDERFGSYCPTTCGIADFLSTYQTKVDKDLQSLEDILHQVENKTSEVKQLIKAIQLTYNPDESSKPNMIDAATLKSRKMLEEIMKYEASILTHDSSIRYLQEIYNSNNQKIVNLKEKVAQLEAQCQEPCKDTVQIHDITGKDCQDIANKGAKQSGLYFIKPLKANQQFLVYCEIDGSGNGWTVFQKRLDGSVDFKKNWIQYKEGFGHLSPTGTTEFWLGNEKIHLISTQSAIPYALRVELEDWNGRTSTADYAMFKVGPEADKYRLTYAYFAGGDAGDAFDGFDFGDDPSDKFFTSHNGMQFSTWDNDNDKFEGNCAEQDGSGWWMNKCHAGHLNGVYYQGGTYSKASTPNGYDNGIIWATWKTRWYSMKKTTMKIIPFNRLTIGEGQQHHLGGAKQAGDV

Substance | pKd (fibrinogen) | pKd (complement iC3b [1]) | pKd (CD54 (ICAM-1)) | pKd (complement iC3b [2])
variant CD11b A domain consisting of amino acids E123 to K315 (11bA^123-315) (from UniProt P11215 139-331) (receptor) | 6.60 | 6.34 | 6.66 | 
variant CD11b A domain with an Ile to Gly change at residue 316 (11bA^I→G) (from UniProt P11215 139-337) (receptor) |  |  |  | 6.18
